Key:
[1] = molecular target: T1, human sodium-dependent phosphate transporter 2B (NaPi2b) (human, UniProt O95436 1-690); experiment: flow cytometry, IGROV-1 cells (endogenous NaPi2b)
T1 construct: UniProt ID is given as 095436 [sic]; also called hNaPi2b; Hu NaPi2b
T1 sequence: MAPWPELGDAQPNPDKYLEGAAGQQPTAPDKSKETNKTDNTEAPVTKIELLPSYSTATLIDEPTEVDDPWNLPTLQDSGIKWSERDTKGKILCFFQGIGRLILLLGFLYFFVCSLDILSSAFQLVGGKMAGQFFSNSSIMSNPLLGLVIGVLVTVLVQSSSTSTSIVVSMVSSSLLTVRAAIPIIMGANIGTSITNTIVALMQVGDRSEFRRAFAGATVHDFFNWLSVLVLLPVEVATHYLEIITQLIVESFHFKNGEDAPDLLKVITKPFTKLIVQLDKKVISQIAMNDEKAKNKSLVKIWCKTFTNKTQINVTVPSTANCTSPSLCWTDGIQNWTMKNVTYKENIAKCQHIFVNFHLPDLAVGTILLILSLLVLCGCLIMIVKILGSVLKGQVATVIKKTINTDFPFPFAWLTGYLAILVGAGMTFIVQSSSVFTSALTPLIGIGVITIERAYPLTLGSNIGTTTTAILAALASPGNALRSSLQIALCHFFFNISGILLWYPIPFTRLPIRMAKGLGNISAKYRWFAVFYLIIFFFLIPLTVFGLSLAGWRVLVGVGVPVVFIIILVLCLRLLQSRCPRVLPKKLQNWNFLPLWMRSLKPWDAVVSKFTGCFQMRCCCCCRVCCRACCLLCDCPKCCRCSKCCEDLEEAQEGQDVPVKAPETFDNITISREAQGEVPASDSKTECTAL
Procedure: (§1) Briefly, HEK293-6e cells were transfected for ˜24 hours to transiently express human NaPi2b, cynomolgus or mouse NaPi2b, at 1 μg of DNA per 1 million cells. Following transfection, 50,000 cells per well were seeded in V-bottom 96-well plates and incubated with 200 nM of primary antibody for 18-24 hours at 4° C. to prevent internalization. Post-incubation, cells were washed and stained with anti-Human IgG Fc AF647 conjugate (Jackson Immuno Research Labs, West Grove, PA, Cat. No. 109-605-098, Lot. No. 124868) at 4° C. for 1 hour. Following staining and washing, fluorescence was detected by flow cytometry on BD LSRFortessa™ Cell Analyzer (BD Biosciences, Franklin Lake, NJ) with 10,000 minimum events collected per well. The AF647/APC-A GeoMean (fluorescence signal geometric mean, proportional to anti-Human AF647 binding) was calculated for the live singlet cell population for each primary antibody using FlowJo™ v8 software (BD Biosciences, Franklin Lake, NJ). The Bmax and Kd of each primary antibody were calculated using GraphPad Prism Version 9 (GraphPad Software, San Diego, CA)
(§2) The ability of ADCs to bind to cells expressing NaPi2b was assessed. […] Binding to endogenous high NaPi2b-expressing cell lines IGROV-1 and HCC-78 was assessed by flow cytometry according to methods described in Example 5.

[2] = molecular target: T1, human sodium-dependent phosphate …; experiment: flow cytometry, HCC-78 cells (endogenous NaPi2b); apparent Kd
Procedure: as §1, §2

[3] = molecular target: T1, human sodium-dependent phosphate …; experiment: flow cytometry, HEK293-6e cells transfected with human NaPi2b; apparent Kd
Procedure: (§3) The binding cross-reactivity of humanized antibody variant v29456 to human, cynomolgus and mouse NaPi2b was assessed by flow cytometry using HEK293-6e transfected cells.
as §1

[4] = molecular target: T1, human sodium-dependent phosphate …; experiment: flow cytometry on IGROV-1 cells (endogenous NaPi2b), 4 C, anti-human IgG Fc AF647 detection
Procedure: as §1, §2

cynomolgus monkey NaPi2b = molecular target: T2, cynomolgus monkey NaPi2b (cynomolgus monkey, UniProt O95436 1-690 (human entry)); experiment: flow cytometry, HEK293-6e cells transfected with cynomolgus NaPi2b
T2 construct: Transiently expressed on HEK293-6e cells; also called Cyno NaPi2b
T2 chain: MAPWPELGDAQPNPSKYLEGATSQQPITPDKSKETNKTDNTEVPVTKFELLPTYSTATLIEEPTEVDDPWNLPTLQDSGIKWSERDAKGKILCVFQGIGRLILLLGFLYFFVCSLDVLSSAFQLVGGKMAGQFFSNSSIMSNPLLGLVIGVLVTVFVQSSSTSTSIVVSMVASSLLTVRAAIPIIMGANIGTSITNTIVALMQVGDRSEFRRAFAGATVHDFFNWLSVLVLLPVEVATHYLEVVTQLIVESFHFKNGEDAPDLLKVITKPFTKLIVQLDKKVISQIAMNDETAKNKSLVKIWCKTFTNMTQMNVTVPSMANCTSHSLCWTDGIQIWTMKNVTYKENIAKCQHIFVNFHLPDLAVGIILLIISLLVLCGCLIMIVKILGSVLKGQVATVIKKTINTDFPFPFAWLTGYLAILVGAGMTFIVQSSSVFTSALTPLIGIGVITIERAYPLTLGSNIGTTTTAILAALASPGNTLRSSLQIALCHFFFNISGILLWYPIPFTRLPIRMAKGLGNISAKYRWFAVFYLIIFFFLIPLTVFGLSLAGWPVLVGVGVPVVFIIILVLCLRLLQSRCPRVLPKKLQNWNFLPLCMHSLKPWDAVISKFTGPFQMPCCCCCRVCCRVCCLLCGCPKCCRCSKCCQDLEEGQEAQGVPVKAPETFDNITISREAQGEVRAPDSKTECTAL
Procedure: as §3, §1

[5] = molecular target: T1, human sodium-dependent phosphate …; experiment: flow cytometry, HEK293-6e cells transfected with human NaPi2b
Procedure: as §3, §1

Bmax (MFI) [1]: 78100 MFI | Kd [2]: 2.27 nM | Kd [3]: 5.2 nM | EC50 (read off the curve) [4]: ~0.6 nM | Bmax (APC-A GeoMean) (cynomolgus monkey NaPi2b): 2010 APC-A GeoMean | fold lower apparent Kd than v18992 (MX35) (cynomolgus monkey NaPi2b): 10 fold | fold lower apparent Kd than v18993 (lifastuzumab) (cynomolgus monkey NaPi2b): 2 fold | Bmax (APC-A GeoMean) [5]: 2540 APC-A GeoMean
B1: v29456 humanized anti-NaPi2b antibody (H1L2) (antibody, human IgG1, kappa)
heavy: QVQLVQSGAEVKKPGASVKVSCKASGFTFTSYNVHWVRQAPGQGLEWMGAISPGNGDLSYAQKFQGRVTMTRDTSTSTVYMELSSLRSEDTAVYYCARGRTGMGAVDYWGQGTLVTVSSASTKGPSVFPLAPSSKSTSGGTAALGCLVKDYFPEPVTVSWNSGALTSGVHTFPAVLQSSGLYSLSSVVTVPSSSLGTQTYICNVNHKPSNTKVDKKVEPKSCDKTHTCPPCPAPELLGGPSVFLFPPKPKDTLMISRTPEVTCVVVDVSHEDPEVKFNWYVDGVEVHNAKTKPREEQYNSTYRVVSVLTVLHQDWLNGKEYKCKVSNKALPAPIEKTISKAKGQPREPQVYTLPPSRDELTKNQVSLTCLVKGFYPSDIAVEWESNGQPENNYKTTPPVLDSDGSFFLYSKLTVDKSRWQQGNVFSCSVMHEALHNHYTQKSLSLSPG
light: DVQMTQSPSSLSASVGDRVTITCRASQDVYSYLNWYQQKPGKAVKLLIYYTSRLQSGVPSRFSGSGSGTDYTLTISSLQPEDFATYYCQQYNIFPWTFGQGTKLEIKRTVAAPSVFIFPPSDEQLKSGTASVVCLLNNFYPREAKVQWKVDNALQSGNSQESVTEQDSKDSTYSLSSTLTLSKADYEKHKVYACEVTHQGLSSPVTKSFNRGEC
